In paper PMC6450059:

Tests used:
[1] = molecular target: PmScsCΔLinker (Proteus mirabilis); assay: SAXS; PmScsCΔLinker, concentration series 0.1-10.0 mg ml^-1 in 10 mM HEPES pH 7.4, 150 mM NaCl, 283 K; linear combination of monomer, dimer and trimer scattering curves, global (common K d and K t) and independent optimization; K d: monomers and dimer; K t: monomer, dimer and trimer
[2] = molecular target: PmScsCΔLinker (Proteus mirabilis); assay: crystal structure; PmScsCΔLinker 40 mg ml^-1 in 10 mM HEPES pH 7.4, 150 mM NaCl; 0.1 M HEPES pH 7, 32%(v/v) Jeffamine M-600; 293 K; space group H32, one protomer in the asymmetric unit, trimer through crystallographic symmetry
[3] = molecular target: Suppressor of copper sensitivity protein C from Proteus mirabilis (PmScsC) (Proteus mirabilis); assay: SAXS; native PmScsC, concentration series 0.1-10.0 mg ml^-1 in 10 mM HEPES pH 7.4, 150 mM NaCl, 283 K; linear combination of monomer and trimer scattering curves, global (common K t) and independent optimization; K t: monomers and trimer

PmScsCΔLinker (enzyme)
K t (equilibrium constant for trimer formation, from monomer and dimer) [1]: 730 µM | Kd [1]: 210 µM | dimer fraction at 0.1 mg/ml (global optimization) [1]: 0.03 | dimer fraction at 0.1 mg/ml (independent optimization) [1]: 0 | dimer fraction at 0.5 mg/ml (global optimization) [1]: 0.12 | dimer fraction at 0.5 mg/ml (independent optimization) [1]: 0 | dimer fraction at 2.0 mg/ml (global optimization) [1]: 0.27 | dimer fraction at 2.0 mg/ml (independent optimization) [1]: 0.33 | dimer fraction at 5.0 mg/ml (global optimization) [1]: 0.41 | dimer fraction at 5.0 mg/ml (independent optimization) [1]: 0.37 | dimer fraction at 10.0 mg/ml (global optimization) [1]: 0.48 | dimer fraction at 10.0 mg/ml (independent optimization) [1]: 0.49 | monomer fraction at 0.1 mg/ml (global optimization) [1]: 0.97 | monomer fraction at 0.1 mg/ml (independent optimization) [1]: 1 | monomer fraction at 0.5 mg/ml (global optimization) [1]: 0.88 | monomer fraction at 0.5 mg/ml (independent optimization) [1]: 0.94 | monomer fraction at 2.0 mg/ml (global optimization) [1]: 0.71 | monomer fraction at 2.0 mg/ml (independent optimization) [1]: 0.67 | monomer fraction at 5.0 mg/ml (global optimization) [1]: 0.53 | monomer fraction at 5.0 mg/ml (independent optimization) [1]: 0.55 | monomer fraction at 10.0 mg/ml (global optimization) [1]: 0.4 | monomer fraction at 10.0 mg/ml (independent optimization) [1]: 0.37 | trimer fraction at 0.1 mg/ml (global optimization) [1]: 0 | trimer fraction at 0.1 mg/ml (independent optimization) [1]: 0 | trimer fraction at 0.5 mg/ml (global optimization) [1]: 0 | trimer fraction at 0.5 mg/ml (independent optimization) [1]: 0.06 | trimer fraction at 2.0 mg/ml (global optimization) [1]: 0.02 | trimer fraction at 2.0 mg/ml (independent optimization) [1]: 0 | trimer fraction at 5.0 mg/ml (global optimization) [1]: 0.07 | trimer fraction at 5.0 mg/ml (independent optimization) [1]: 0.08 | trimer fraction at 10.0 mg/ml (global optimization) [1]: 0.12 | trimer fraction at 10.0 mg/ml (independent optimization) [1]: 0.1 | stoichiometry N [2]: 3

Suppressor of copper sensitivity protein C from Proteus mirabilis (PmScsC) (enzyme)
K t (equilibrium constant for trimer formation, monomers and trimer) [3]: 6.3e-18 M^2 | monomer fraction at 0.1 mg/ml (global optimization) [3]: 0.01 | monomer fraction at 0.1 mg/ml (independent optimization) [3]: 0.21 | monomer fraction at 0.5 mg/ml (global optimization) [3]: 0 | monomer fraction at 0.5 mg/ml (independent optimization) [3]: 0.04 | monomer fraction at 2.0 mg/ml (global optimization) [3]: 0 | monomer fraction at 2.0 mg/ml (independent optimization) [3]: 0 | monomer fraction at 5.0 mg/ml (global optimization) [3]: 0 | monomer fraction at 5.0 mg/ml (independent optimization) [3]: 0 | monomer fraction at 10.0 mg/ml (global optimization) [3]: 0 | monomer fraction at 10.0 mg/ml (independent optimization) [3]: 0 | stoichiometry N [3]: 3 | trimer fraction at 0.1 mg/ml (global optimization) [3]: 0.99 | trimer fraction at 0.1 mg/ml (independent optimization) [3]: 0.79 | trimer fraction at 0.5 mg/ml (global optimization) [3]: 1 | trimer fraction at 0.5 mg/ml (independent optimization) [3]: 0.96 | trimer fraction at 2.0 mg/ml (global optimization) [3]: 1 | trimer fraction at 2.0 mg/ml (independent optimization) [3]: 1 | trimer fraction at 5.0 mg/ml (global optimization) [3]: 1 | trimer fraction at 5.0 mg/ml (independent optimization) [3]: 1 | trimer fraction at 10.0 mg/ml (global optimization) [3]: 1 | trimer fraction at 10.0 mg/ml (independent optimization) [3]: 1
